According to patent publication US20250382598A1:
Several values for one entry are separate records, joined by “and”; a condition that tells them apart may be missing. Equal entries are not always repeated.

What was measured:
[1] = molecular target: LbCas12a-Trex2 fusion (C-terminal Trex2; construct 25962) (Simian virus 40; Lachnospiraceae bacterium ND2006; Mus musculus); assay: cell-based or functional assay
[2] = molecular target: LbCas12a-scTrex2 fusion (single-chained Trex2 homodimer at the C-terminus; construct 27433) (Simian virus 40; Lachnospiraceae bacterium ND2006; Mus musculus); assay: cell-based or functional assay

## LbCas12a-Trex2 fusion (C-terminal Trex2; construct 25962) (enzyme)
[1]
  1 kb Inversion (targeted fragment inversion in transgenic maize plants): 28 plants and 18.4%

## LbCas12a-scTrex2 fusion (single-chained Trex2 homodimer at the C-terminus; construct 27433) (enzyme)
[2]
  1 kb Inversion (targeted fragment inversion in transgenic maize plants): 1 plants and 2%
  targeted inversion frequency among the 13 plants in which both targets were edited: 7.7%
